In the supplement of paper PMC11316812:
± gives the standard deviation of the averaged measurements.

What was measured:
MCF7 = assay: percentage of EdU-negative (G0-arrested) nuclei per well, 72 h; higher = more G0 arrest; conditions: reference: sequence is the full UniProt precursor, the tested protein was the secreted form or ectodomain
hTERT-HMEC = assay: as above; conditions: reference: sequence is the full UniProt precursor, the tested protein was the secreted form or ectodomain
[1] = protein concentration 0.0225 µM
[2] = protein concentration 0.01325 µM
[3] = protein concentration 0.1325 µM
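Note: secreted proteins added to cultured cells, EdU pulse at the end, nuclei found by Hoechst imaging, EdU status from nuclear versus surrounding ring intensity ratio, PBS as neutral control.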

Sequence	percentage of EdU-negative (MCF7; [1]) [%]	percentage of EdU-negative (MCF7; protein concentration 0.225 µM) [%]	percentage of EdU-negative (hTERT-HMEC; [1]) [%]	percentage of EdU-negative (hTERT-HMEC; protein concentration 0.225 µM) [%]	further results
MRIMLLFTAILAFSLAQSFGAVCKEPQEEVVPGGGRSKRDPDLYQLLQRLFKSHSSLEGLLKALSQASTDPKESTSPEKRDMHDFFVGLMGKRSVQPDSPTDVNQENVPSFGILKYPPRAE [Q9UHF0]	22.8 ± 2.6	25.6 ± 1.7	5.911 ± 0.0092	5.91 ± 0.065	
MLQGTCSVLLLWGILGAIQAQQQEVISPDTTERNNNCPEKTDCPIHVYFVLDTSESVTMQSPTDILLFHMKQFVPQFISQLQNEFYLDQVALSWRYGGLHFSDQVEVFSPPGSDRASFIKNLQGISSFRRGTFTDCALANMTEQIRQDRSKGTVHFAVVITDGHVTGSPCGGIKLQAERAREEGIRLFAVAPNQNLKEQGLRDIASTPHELYRNDYATMLPDSTEIDQDTINRIIKVMKHEAYGECYKVSCLEIPGPSGPKGYRGQKGAKGNMGEPGEPGQKGRQGDPGIEGPIGFPGPKGVPGFKGEKGEFGADGRKGAPGLAGKNGTDGQKGKLGRIGPPGCKGDPGNRGPDGYPGEAGSPGERGDQGGKGDPGRPGRRGPPGEIGAKGSKGYQGNSGAPGSPGVKGAKGGPGPRGPKGEPGRRGDPGTKGSPGSDGPKGEKGDPGPEGPRGLAGEVGNKGAKGDRGLPGPRGPQGALGEPGKQGSRGDPGDAGPRGDSGQPGPKGDPGRPGFSYPGPRGAPGEKGEPGPRGPEGGRGDFGLKGEPGRKGEKGEPADPGPPGEPGPRGPRGVPGPEGEPGPPGDPGLTECDVMTYVRETCGCCDCEKRCGALDVVFVIDSSESIGYTNFTLEKNFVINVVNRLGAIAKDPKSETGTRVGVVQYSHEGTFEAIQLDDERIDSLSSFKEAVKNLEWIAGGTWTPSALKFAYDRLIKESRRQKTRVFAVVITDGRHDPRDDDLNLRALCDRDVTVTAIGIGDMFHEKHESENLYSIACDKPQQVRNMTLFSDLVAEKFIDDMEDVLCPDPQIVCPDLPCQTELSVAQCTQRPVDIVFLLDGSERLGEQNFHKARRFVEQVARRLTLARRDDDPLNARVALLQFGGPGEQQVAFPLSHNLTAIHEALETTQYLNSFSHVGAGVVHAINAIVRSPRGGARRHAELSFVFLTDGVTGNDSLHESAHSMRKQNVVPTVLALGSDVDMDVLTTLSLGDRAAVFHEKDYDSLAQPGFFDRFIRWIC					percentage of EdU-negative (MCF7; protein concentration 0.013 µM): 27.1 ± 0.99%; percentage of EdU-negative (MCF7; protein concentration 0.13 µM): 27.7 ± 1.8%; percentage of EdU-negative (hTERT-HMEC; protein concentration 0.013 µM): 6.76 ± 1.4%; percentage of EdU-negative (hTERT-HMEC; protein concentration 0.13 µM): 50.9 ± 9.9%
MKAWGTVVVTLATLMVVTVDAKIYERCELAARLERAGLNGYKGYGVGDWLCMAHYESGFDTAFVDHNPDGSSEYGIFQLNSAWWCDNGITPTKNLCHMDCHDLLNRHILDDIRCAKQIVSSQNGLSAWTSWRLHCSGHDLSEWLKGCDMHVKIDPKIHP [Q96QH8]	25.8 ± 1.2	25.03 ± 0.22	6.28 ± 1.5	7.91 ± 0.26	
MVLCWLLLLVMALPPGTTGVKDCVFCELTDSMQCPGTYMHCGDDEDCFTGHGVAPGTGPVINKGCLRATSCGLEEPVSYRGVTYSLTTNCCTGRLCNRAPSSQTVGATTSLALGLGMLLPPRLL [Q8TDM5]	27.6 ± 0.57	25.47 ± 0.088	4.81 ± 0.12	5.43 ± 0.73	
MTPPKLRASLSPSLLLLLSGCLLAAARREKGAASNVAEPVPGPTGGSSGRFLSPEQHACSWQLLLPAPEAAAGSELALRCQSPDGARHQCAYRGHPERCAAYAARRAHFWKQVLGGLRKKRRPCHDPAPLQARLCAGKKGHGAELRLVPRASPPARPTVAGFAGESKPRARNRGRTRERASGPAAGTPPPQSAPPKENPSERKTNEGKRKAALVPNEERPMGTGPDPDGLDGNAELTETYCAEKWHSLCNFFVNFWNG [Q8TAT2]					percentage of EdU-negative (MCF7; [2]): 25.1 ± 0.15%; percentage of EdU-negative (MCF7; [3]): 27.7 ± 1.3%; percentage of EdU-negative (hTERT-HMEC; [2]): 4.87 ± 0.1%; percentage of EdU-negative (hTERT-HMEC; [3]): 6.22 ± 0.9%
MIRAAPPPLFLLLLLLLLLVSWASRGEAAPDQDEIQRLPGLAKQPSFRQYSGYLKGSGSKHLHYWFVESQKDPENSPVVLWLNGGPGCSSLDGLLTEHGPFLVQPDGVTLEYNPYSWNLIANVLYLESPAGVGFSYSDDKFYATNDTEVAQSNFEALQDFFRLFPEYKNNKLFLTGESYAGIYIPTLAVLVMQDPSMNLQGLAVGNGLSSYEQNDNSLVYFAYYHGLLGNRLWSSLQTHCCSQNKCNFYDNKDLECVTNLQEVARIVGNSGLNIYNLYAPCAGGVPSHFRYEKDTVVVQDLGNIFTRLPLKRMWHQALLRSGDKVRMDPPCTNTTAASTYLNNPYVRKALNIPEQLPQWDMCNFLVNLQYRRLYRSMNSQYLKLLSSQKYQILLYNGDVDMACNFMGDEWFVDSLNQKMEVQRRPWLVKYGDSGEQIAGFVKEFSHIAFLTIKGAGHMVPTDKPLAAFTMFSRFLNKQPY	25.2 ± 3.7	25.1 ± 0.47	5.3 ± 0.043	5.82 ± 0.15	
